In experiment [1] the target is T1, FcγRIIIa extracellular domain with C-terminal His tag (human, UniProt P08637 17-208).
T1 construct: extracellular domain; also called FcgRIIIa; 3a; not shown: His tag at the C terminus
The experiment can be described thus: SPR (Biacore), antibody captured on antigen peptide chip, FcγR as analyte; relative binding amount. As for the experimental part:
(§1) Analysis of interaction between objective antibody and the FcγR was carried out using Biacore T100 (GE Healthcare). HBS-EP+ (GE Healthcare) was used as the running buffer, and the measurement temperature was set to 25° C. Chips produced by immobilizing the antigen peptide by the amine coupling method to a Series S Sencor Chip CM5 (GE Healthcare), or alternatively, chips produced by allowing preliminarily biotinylated antigen peptides to interact with and immobilize onto a Series S Sensor Chip SA (certified) (GE Healthcare) were used. Antibodies of interest were captured onto an antigen peptide-immobilized chip, and allowed to interact to each FcγR diluted with running buffer. To regenerate and repeatedly use the chip, the antibodies captured on the chip were washed off by reacting 10 mM glycine-HCl, pH 1.5.
(§2) The FcγR-binding activity of each antibody was assessed primarily using as an indicator the FcγR-binding activity and dissociation constant for FcγR.
A general note: In SPR one partner is held on a chip, and binding of the other changes the refractive index at the surface.

The target in experiment [2] is T2, FcγRIIb extracellular domain with C-terminal His tag (human, UniProt P31994 43-217).
T2 construct: extracellular domain; also called FcgRIIb; 2b; not shown: His tag at the C terminus
T2 sequence (looked up): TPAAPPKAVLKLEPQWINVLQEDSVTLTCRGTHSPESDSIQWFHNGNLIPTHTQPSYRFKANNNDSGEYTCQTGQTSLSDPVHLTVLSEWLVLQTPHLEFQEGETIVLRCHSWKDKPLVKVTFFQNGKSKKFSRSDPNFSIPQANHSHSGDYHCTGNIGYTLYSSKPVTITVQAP
Described as above. The procedure: as §1, §2

T1 sequence (P08637 17-208): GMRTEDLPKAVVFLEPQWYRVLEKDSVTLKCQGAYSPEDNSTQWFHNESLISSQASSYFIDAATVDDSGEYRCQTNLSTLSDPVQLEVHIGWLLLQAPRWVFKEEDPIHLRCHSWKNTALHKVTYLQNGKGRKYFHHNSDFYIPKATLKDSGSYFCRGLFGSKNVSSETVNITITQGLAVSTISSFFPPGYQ

B1: GpH7-A5/GpH7-B3 variant S267_14T/GpL16-k0 (antibody, human IgG1, kappa)
heavy 1: not shown
heavy 2: not shown
light: DIVMTQSPLSLPVTPGEPASISCQASESLVHSNRNTYLHWYLQKPGQSPQLLIYKVSNRFSGVPDRFSGSGSGTDFTLKISRVEAEDVGVYYCSQNTHVPPTFGQGTKVEIERTVAAPSVFIFPPSDEQLKSGTASVVCLLNNFYPREAKVQWKVDNALQSGNSQESVTEQDSKDSTYSLSSTLTLSKADYEKHKVYACEVTHQGLSSPVTKSFNRGEC
notes: Heterodimerized anti-glypican-3 IgG1; the substitution stands in the GpH7-B3 chain only; also called He Ab
Turning to B1, the He/Con_3a in experiment [1] was 45.6 % of GpH7-A5/GpH7-B3/GpL16-k0 (=100). Besides, the He/Con_2b in experiment [2] is 104 % of GpH7-A5/GpH7-B3/GpL16-k0 (=100).

B2: GpH7-A5/GpH7-B3 variant A327_01G/GpL16-k0 (antibody, human IgG1, kappa)
heavy 1: not shown
heavy 2: not shown
light: DIVMTQSPLSLPVTPGEPASISCQASESLVHSNRNTYLHWYLQKPGQSPQLLIYKVSNRFSGVPDRFSGSGSGTDFTLKISRVEAEDVGVYYCSQNTHVPPTFGQGTKVEIERTVAAPSVFIFPPSDEQLKSGTASVVCLLNNFYPREAKVQWKVDNALQSGNSQESVTEQDSKDSTYSLSSTLTLSKADYEKHKVYACEVTHQGLSSPVTKSFNRGEC
notes: as for B1
In the case of B2, in experiment [1], the He/Con_3a was 72.4 % of GpH7-A5/GpH7-B3/GpL16-k0 (=100). In experiment [2], the He/Con_2b is 116 % of GpH7-A5/GpH7-B3/GpL16-k0 (=100).

B3: GpH7-A5/GpH7-B3 variant K326_16H/GpL16-k0 (antibody, human IgG1, kappa)
heavy 1: not shown
heavy 2: not shown
light: DIVMTQSPLSLPVTPGEPASISCQASESLVHSNRNTYLHWYLQKPGQSPQLLIYKVSNRFSGVPDRFSGSGSGTDFTLKISRVEAEDVGVYYCSQNTHVPPTFGQGTKVEIERTVAAPSVFIFPPSDEQLKSGTASVVCLLNNFYPREAKVQWKVDNALQSGNSQESVTEQDSKDSTYSLSSTLTLSKADYEKHKVYACEVTHQGLSSPVTKSFNRGEC
notes: as for B1
B3: the He/Con_3a in experiment [1] was 96.1 % of GpH7-A5/GpH7-B3/GpL16-k0 (=100). In experiment [2], the He/Con_2b is 119 % of GpH7-A5/GpH7-B3/GpL16-k0 (=100).

B4: GpH7-A5/GpH7-B3 variant K326_20W/GpL16-k0 (antibody, human IgG1, kappa)
heavy 1: not shown
heavy 2: not shown
light: DIVMTQSPLSLPVTPGEPASISCQASESLVHSNRNTYLHWYLQKPGQSPQLLIYKVSNRFSGVPDRFSGSGSGTDFTLKISRVEAEDVGVYYCSQNTHVPPTFGQGTKVEIERTVAAPSVFIFPPSDEQLKSGTASVVCLLNNFYPREAKVQWKVDNALQSGNSQESVTEQDSKDSTYSLSSTLTLSKADYEKHKVYACEVTHQGLSSPVTKSFNRGEC
notes: as for B1
With B4, the He/Con_3a in experiment [1] is 84.8 % of GpH7-A5/GpH7-B3/GpL16-k0 (=100). In experiment [2], the He/Con_2b is 148 % of GpH7-A5/GpH7-B3/GpL16-k0 (=100).

B5: GpH7-A5/GpH7-B3 variant P271_09D/GpL16-k0 (antibody, human IgG1, kappa)
heavy 1: not shown
heavy 2: not shown
light: DIVMTQSPLSLPVTPGEPASISCQASESLVHSNRNTYLHWYLQKPGQSPQLLIYKVSNRFSGVPDRFSGSGSGTDFTLKISRVEAEDVGVYYCSQNTHVPPTFGQGTKVEIERTVAAPSVFIFPPSDEQLKSGTASVVCLLNNFYPREAKVQWKVDNALQSGNSQESVTEQDSKDSTYSLSSTLTLSKADYEKHKVYACEVTHQGLSSPVTKSFNRGEC
notes: as for B1
For B5, the He/Con_3a in experiment [1] was 93.1 % of GpH7-A5/GpH7-B3/GpL16-k0 (=100). Further, the He/Con_2b in experiment [2] was 120 % of GpH7-A5/GpH7-B3/GpL16-k0 (=100).

B6: GpH7-A5/GpH7-B3 variant P271_08L/GpL16-k0 (antibody, human IgG1, kappa)
heavy 1: not shown
heavy 2: not shown
light: DIVMTQSPLSLPVTPGEPASISCQASESLVHSNRNTYLHWYLQKPGQSPQLLIYKVSNRFSGVPDRFSGSGSGTDFTLKISRVEAEDVGVYYCSQNTHVPPTFGQGTKVEIERTVAAPSVFIFPPSDEQLKSGTASVVCLLNNFYPREAKVQWKVDNALQSGNSQESVTEQDSKDSTYSLSSTLTLSKADYEKHKVYACEVTHQGLSSPVTKSFNRGEC
notes: as for B1
In the case of B6, the He/Con_3a in experiment [1] is 71 % of GpH7-A5/GpH7-B3/GpL16-k0 (=100). Moreover, in experiment [2], the He/Con_2b is 103 % of GpH7-A5/GpH7-B3/GpL16-k0 (=100).

B7: GpH7-A5/GpH7-B3 variant S267_19Q/GpL16-k0 (antibody, human IgG1, kappa)
heavy 1: not shown
heavy 2: not shown
light: DIVMTQSPLSLPVTPGEPASISCQASESLVHSNRNTYLHWYLQKPGQSPQLLIYKVSNRFSGVPDRFSGSGSGTDFTLKISRVEAEDVGVYYCSQNTHVPPTFGQGTKVEIERTVAAPSVFIFPPSDEQLKSGTASVVCLLNNFYPREAKVQWKVDNALQSGNSQESVTEQDSKDSTYSLSSTLTLSKADYEKHKVYACEVTHQGLSSPVTKSFNRGEC
notes: as for B1
Take B7: the He/Con_3a in experiment [1] was 65 % of GpH7-A5/GpH7-B3/GpL16-k0 (=100). For the same molecule, in experiment [2], the He/Con_2b was 218 % of GpH7-A5/GpH7-B3/GpL16-k0 (=100).

B8: GpH7-A5/GpH7-B3 variant N325_01G/GpL16-k0 (antibody, human IgG1, kappa)
heavy 1: not shown
heavy 2: not shown
light: DIVMTQSPLSLPVTPGEPASISCQASESLVHSNRNTYLHWYLQKPGQSPQLLIYKVSNRFSGVPDRFSGSGSGTDFTLKISRVEAEDVGVYYCSQNTHVPPTFGQGTKVEIERTVAAPSVFIFPPSDEQLKSGTASVVCLLNNFYPREAKVQWKVDNALQSGNSQESVTEQDSKDSTYSLSSTLTLSKADYEKHKVYACEVTHQGLSSPVTKSFNRGEC
notes: as for B1
As to B8, the He/Con_3a in experiment [1] is 28 % of GpH7-A5/GpH7-B3/GpL16-k0 (=100). Also, in experiment [2], the He/Con_2b was 101 % of GpH7-A5/GpH7-B3/GpL16-k0 (=100).
